# Measurements published in the supplement of paper PMC12042874.
# ± gives the uncertainty stated by the source.
# Assay: amyloid nucleation score (Sup35N fusion, yeast selection) (log enrichment); library NNK1; higher = more nucleation; inactive = no reads after selection
# Summary of the method: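 The nucleation score is a DiMSum log enrichment of output over input reads, centred on the mode score of non-aggregating sequences. Sequences under 100 input reads were excluded, and reads came from Illumina sequencing of plasmid inserts. Psi-negative yeast expressing Sup35N fused to peptides of 20 random codons were induced with 100 μM copper sulfate for 24 hours and grown 7 days at 30°C on medium lacking adenine and uracil. Random libraries had three technical output replicates.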
row,Substance,amyloid nucleation score
1,TPKLIAV,-2.05 ± 1.9
2,LVGGVTNWWCVEVDQKGQNG,inactive
3,QWNEDLSLWPDLKYGHMLLS,0.052 ± 0.52
4,WFIRARFTLGKRNELREVI,0.647 ± 0.64
5,VFFSKI,1.08 ± 0.53
6,RYMDMLLRTDWDWLVSQCRF,-0.344 ± 0.33
7,WARCTGIMFGS,0.027 ± 0.97
8,WHRGYGMLTRLRWRPDTVLF,-0.052 ± 1.2
9,MRLWLIWYISVMLTQNPRLW,1.22 ± 0.46
10,HTPLNRC,-0.469 ± 1.4
11,LGFLRLFKKYVFYACCDVYS,-0.175 ± 0.84
12,RYYLISEPILWIYGY,-0.031 ± 0.33
13,YVMQSATDVETSNSGIS,0.525 ± 0.84
14,PQVGRAYNGGAGFLKYSTWD,0.229 ± 0.51
15,TYRDKNNVRFKRFLGKRTAC,-1.22 ± 0.99
16,CFRHR,0.428 ± 0.5
17,LALVFLLMFVHQSDDYKLRN,2.89 ± 0.17
18,INNTLNI,0.793 ± 0.47
19,LPPTLVLMIHNRRVCRCSLA,1.05 ± 0.69
20,VCSCRFLYI,-1.53 ± 1.6
21,PLTLFYLLNTHAVEFSKVNC,-0.674 ± 0.47
22,NLWKVFCSCLNRDMKALGNW,-1.04 ± 0.51

row,Substance,amyloid nucleation score
1,WFSDMTAFLC,inactive
2,VTNYGYDLFVLILDGAMNLS,0.407 ± 0.51
3,CDVVVSSF,-0.117 ± 0.88
4,SKCDQSIRYSRGNETPLDSL,0.274 ± 0.83
5,QFDVVMMWQTE,-0.189 ± 0.3
6,CCHYDHKSGVNSLRRKTNVW,1.57 ± 0.43
7,YSWTVAKIFTYFSVQLSIFR,-0.396 ± 0.33
8,RVTDLYFASGGQLMQRSVLL,0.331 ± 0.6
9,ICLESNRFI,inactive
10,HSSAEIMPGHISGTWGLCDK,-0.62 ± 0.87
11,VRLFMYMCIWMFMSDSSIWG,-0.348 ± 0.64
12,VILVFRVDNCTERKAN,-0.097 ± 0.5
13,RYDSRFALPLDLS,-0.245 ± 0.45
14,EFDTQSCQVDTVAVYIEPSL,0.793 ± 0.65
15,VFIDGLTSYTEIMRL,inactive
16,RCIVWC,0.207 ± 0.56
17,SPKSPPL,-0.053 ± 0.62
18,ILQFFDILSIYVCGWEHEL,6.273 ± 0.053
19,DAPVTSSGSML,0.008 ± 0.23
20,RADPYVYLMEGVCGPRWEPN,0.014 ± 0.77
21,GFPRCVWFNSSVIQESSFFV,0.571 ± 1.2
22,SKFTYRV,-0.302 ± 0.38

row,Substance,amyloid nucleation score
1,TSGSRVRRRWGMLVCRNRSR,-1.25 ± 2.4
2,ALPREWKCMSLLFENGSGNS,inactive
3,CIVVYLSLY,3.32 ± 0.099
4,AFRRNSPVSWSRR,0.37 ± 0.35
5,TVLYPGPGAVS,0.155 ± 0.73
6,NILMFEMVVRSFIGLTEKFL,0.69 ± 1
7,FDNTGDCTNFYQLSDWSP,1.05 ± 0.22
8,NASCFADKPLLCSLTGRVMD,-0.043 ± 0.49
9,MTVCM,0.125 ± 1.4
10,LLFYLRSLKMYVLYSGHTMS,1.25 ± 0.45
11,LLASAIHLNRTADAMKEYYP,-0.036 ± 0.39
12,RIYSFHILVS,-0.629 ± 0.38
13,NPHEDRGLESQSAPGGRKWR,1.74 ± 0.64
14,SRPQLDKTLFGLVA,0.771 ± 0.62
15,DPARGWPQNVNLFLLSNRR,1.01 ± 0.63
16,SDKLTRFSTRVFR,-0.586 ± 0.39
17,LFIKFGTHVRYILA,-0.202 ± 0.42
18,RSGSLCGFLREKKVRNTFWV,-0.376 ± 0.59
19,LCSMKMIYQKC,0.177 ± 0.33
20,RHCLKVFSEDTYESVKVVLR,0.428 ± 0.75
21,SFAADLFPRLVKACYSGILM,-0.413 ± 1.5
22,LKLCKVRMQTLLNDVGTSCP,0.025 ± 0.4

row,Substance,amyloid nucleation score
1,WKGMMQFDMSHSCVYWWKCA,0.71 ± 1.1
2,AGVIDT,0.171 ± 0.79
3,GPRFNVALES,-0.347 ± 0.38
4,TITIVVRYVETRCGNIRDVE,0.794 ± 0.45
5,RPKHTGTINYKHVHTNYVEG,1.36 ± 0.47
6,IYVLYQIERSVK,-0.154 ± 0.58
7,VVVVIFDFRCNKLQ,2.28 ± 0.2
8,FTYSLFCAYI,1.18 ± 0.66
9,LDWLMGGRTA,-0.598 ± 1.7
10,IWSSVQEFLGCMFWVIRINH,1.77 ± 0.45
11,SIYALVSCSVFVTAMDAVQA,4.17 ± 0.061
12,TVIRESIPKFWFYTLGMLKV,-0.6 ± 0.35
13,VYQVNVGCWSCGCRTVICNR,7.932 ± 0.045
14,NYLLWVQVWCRDWGNWGIMG,1.41 ± 0.81
15,PFLQQNKIFNGLYEMTNWVA,inactive
16,SVPVSTTDWNSGFLWAGGCS,0.513 ± 0.52
17,FILPLCMGVLLSAIETLGTC,1.09 ± 0.81
18,FCARGRNRPN,1.04 ± 0.5
19,CLWCDRTVASWAKVSASVRL,-0.073 ± 0.24
20,ICGYWSLKVVCRMCHPYGNG,-1.17 ± 0.85
21,KLCQVRHVSWIMSCQRYKQD,0.058 ± 0.49
22,VKYTYDS,-0.238 ± 0.65
